Assay results as given in ChEMBL document CHEMBL2074453, “Role of multidrug resistance protein 1 (MRP1) and glutathione S-transferase A1-1 in alkylating agent resistance. Kinetics of glutathione conjugate formation and efflux govern differential cellular sensitivity to chlorambucil versus melphalan toxicity” (J Biol Chem, 2001).

Columns and labels:
[1] = substrate: NC(Cc1ccc(N(CCCl)CCSC[C@H](NC(=O)CC[C@H](N)C(=O)O)C(=O)NCC(=O)O)cc1)C(=O)O; assay: TP_TRANSPORTER: uptake in membrane vesicle from MCF7/VP cells; type: functional, cell membranes
[2] = substrate: NC(CCC(=O)NC(CSCCN(CCCl)c1ccc(CCCC(=O)O)cc1)C(=O)NCC(=O)O)C(=O)O; assay: TP_TRANSPORTER: uptake in membrane vesicle from MCF/VP cells; type: functional, cell membranes

B1: Multidrug resistance-associated protein 1 (Homo sapiens) (protein)
chain: MALRGFCSADGSDPLWDWNVTWNTSNPDFTKCFQNTVLVWVPCFYLWACFPFYFLYLSRHDRGYIQMTPLNKTKTALGFLLWIVCWADLFYSFWERSRGIFLAPVFLVSPTLLGITMLLATFLIQLERRKGVQSSGIMLTFWLVALVCALAILRSKIMTALKEDAQVDLFRDITFYVYFSLLLIQLVLSCFSDRSPLFSETIHDPNPCPESSASFLSRITFWWITGLIVRGYRQPLEGSDLWSLNKEDTSEQVVPVLVKNWKKECAKTRKQPVKVVYSSKDPAQPKESSKVDANEEVEALIVKSPQKEWNPSLFKVLYKTFGPYFLMSFFFKAIHDLMMFSGPQILKLLIKFVNDTKAPDWQGYFYTVLLFVTACLQTLVLHQYFHICFVSGMRIKTAVIGAVYRKALVITNSARKSSTVGEIVNLMSVDAQRFMDLATYINMIWSAPLQVILALYLLWLNLGPSVLAGVAVMVLMVPVNAVMAMKTKTYQVAHMKSKDNRIKLMNEILNGIKVLKLYAWELAFKDKVLAIRQEELKVLKKSAYLSAVGTFTWVCTPFLVALCTFAVYVTIDENNILDAQTAFVSLALFNILRFPLNILPMVISSIVQASVSLKRLRIFLSHEELEPDSIERRPVKDGGGTNSITVRNATFTWARSDPPTLNGITFSIPEGALVAVVGQVGCGKSSLLSALLAEMDKVEGHVAIKGSVAYVPQQAWIQNDSLRENILFGCQLEEPYYRSVIQACALLPDLEILPSGDRTEIGEKGVNLSGGQKQRVSLARAVYSNADIYLFDDPLSAVDAHVGKHIFENVIGPKGMLKNKTRILVTHSMSYLPQVDVIIVMSGGKISEMGSYQELLARDGAFAEFLRTYASTEQEQDAEENGVTGVSGPGKEAKQMENGMLVTDSAGKQLQRQLSSSSSYSGDISRHHNSTAELQKAEAKKEETWKLMEADKAQTGQVKLSVYWDYMKAIGLFISFLSIFLFMCNHVSALASNYWLSLWTDDPIVNGTQEHTKVRLSVYGALGISQGIAVFGYSMAVSIGGILASRCLHVDLLHSILRSPMSFFERTPSGNLVNRFSKELDTVDSMIPEVIKMFMGSLFNVIGACIVILLATPIAAIIIPPLGLIYFFVQRFYVASSRQLKRLESVSRSPVYSHFNETLLGVSVIRAFEEQERFIHQSDLKVDENQKAYYPSIVANRWLAVRLECVGNCIVLFAALFAVISRHSLSAGLVGLSVSYSLQVTTYLNWLVRMSSEMETNIVAVERLKEYSETEKEAPWQIQETAPPSSWPQVGRVEFRNYCLRYREDLDFVLRHINVTINGGEKVGIVGRTGAGKSSLTLGLFRINESAEGEIIIDGINIAKIGLHDLRFKITIIPQDPVLFSGSLRMNLDPFSQYSDEEVWTSLELAHLKDFVSALPDKLDHECAEGGENLSVGQRQLVCLARALLRKTKILVLDEATAAVDLETDDLIQSTIRTQFEDCTVLTIAHRLNTIMDYTRVIVLDKGEIQEYGAPSDLLQQRGLFYSMAKDAGLV
Km [1]: 1.14 µM
Km [2]: 0.37 µM
